# Data: the RNAGym collection of RNA variant scans (doi:10.7554/elife.90254)
# B1: LINE1-mini (parent)
# chain: GGCAGAGCUCAACACAGCGUGGCAAAGUGGCUGUGGCUAGACUGCC
# Variants of: B1
# Assay: self-cleavage, relative activity (ratio to wild type); higher = more cleavage; in vitro, sequencing; the parent is a self-cleaving ribozyme
row,Variant,self-cleavage
1,G7A C8U,0.43
2,A25C U38G,0.02
3,A12C A26C,0.02
4,C10G G40U,0.02
5,G40U,0.15
6,G5C A39U,0.06
7,C10U G29U,0.39
8,A4G A14C,0.12
9,G19U G22A,0.78
10,A26G C45A,1.06
11,U9C A41U,0.06
12,G2C G29A,0.1
13,U28G C46G,0.99
14,A25C C46G,0.75
15,A14G G21C,0.24
16,C18U C46G,1.24
17,G2A C42U,0.44
18,C18A C42G,0.04
19,A6C A16G,0.22
20,G5C A25G,0.06
21,C15A U32G,0.06
22,U34G G36C,0.05
23,C13G A41G,0.09
24,C37A U38G,0.03

row,Variant,self-cleavage
1,G33U A41G,0.07
2,G21U G33C,0.08
3,A4G A11C,0.04
4,C15G C45U,0.05
5,G1A G33U,0.09
6,U20G C23A,0.48
7,G21A C23G,0.78
8,U9G U20C,0.05
9,A16U C37U,0.06
10,A16U C23U,0.23
11,C3A C13G,0.54
12,A24G U28A,0.94
13,A11U C37A,0.02
14,A11U C37U,0.01
15,A14U U38A,0.34
16,U32C U34C,0.16
17,G5C G21A,0.1
18,C10G G21C,0.07
19,G40U A41C,0.2
20,G30A A39G,0.11
21,G30A A39C,0.4
22,G17U U20G,0.12
23,G21C U32A,0.13
24,G40A A41U,0.26

row,Variant,self-cleavage
1,C15A U34A,0.59
2,A14U C23G,0.15
3,A16C A39U,0.09
4,C37U C46G,0.04
5,A39C G44C,0.04
6,C31U C37A,0.09
7,G5A G22C,0.13
8,C31U G44A,0.04
9,A12C,0.03
10,A12U,0.28
11,G7U C15G,0.09
12,U9A G17C,0.06
13,C13A C18A,0.09
14,C15U G17A,0.07
15,G27C G33A,0.13
16,U32G G36C,0.05
17,A16C U32G,0.4
18,U34C C46U,0.12
19,A11G G36C,0.01
20,U34C A39C,0.09
21,A6G A24G,0.12
22,C13U G29C,0.09
23,G5C G30C,0.07
24,G17C U20G,0.14

row,Variant,self-cleavage
1,U32G G35U,0.06
2,A24G C37A,0.09
3,A24G G33C,0.06
4,G22C G30U,0.53
5,C13U U28G,0.08
6,C18A G21C,0.96
7,A24U G30A,0.97
8,C23G U28A,0.7
9,C10U G40U,0.06
10,U43A C46A,0.1
11,U43A C46U,0.13
12,G7C G21U,0.08
13,A14G C37G,0.04
14,A11G G35A,0.05
15,A24G A39C,0.27
16,U9G A12U,0.14
17,G22C G29A,1.19
18,A6U A41C,0.07
19,A12U C45A,0.38
20,A4C C45U,0.2
21,G19C C45U,0.79
22,G21A C31U,0.63
23,U20G C37G,0.07
24,A16C G17C,0.12

row,Variant,self-cleavage
1,A4C G33A,0.29
2,C37A G40C,0.2
3,A6C U43C,0.08
4,A26G G30U,1.61
5,G7A C13G,0.26
6,C8G G40U,0.09
7,C8G G40C,0.09
8,U9G A41U,0.14
9,G2C C46A,0.09
10,G2U G44A,0.08
11,G33U U43G,0.02
12,C15U C42U,0.11
13,C13G A16G,0.01
14,C3U A39C,0.19
15,C3A C18A,0.18
16,A16C U43A,0.04
17,G29U C31G,0.13
18,G1A G36C,0.11
19,G30U A39U,0.87
20,G21A C42U,1.82
21,C3G G33A,0.23
22,A12G C45U,0.05
23,G5U G21C,0.09
24,A25G U34C,0.07

row,Variant,self-cleavage
1,A24C G27A,0.77
2,C31A G35A,0.04
3,U34A G35A,0.07
4,G21U G35C,0.13
5,G29U G35C,0.08
6,A39U G40C,0.18
7,G40C C45G,0.05
8,C13U C15U,0.13
9,C18G C31A,0.06
10,G33U C45G,0.07
11,G5C A11C,0.04
12,A26G G27U,0.94
13,A26G G27C,1.15
14,A12G A25U,0.03
15,A11G G30U,0.04
16,A16U C46A,0.09
17,A4C U32A,0.18
18,G1C G19A,0.11
19,A16C C23A,0.12
20,C8U G30A,0.24
21,A11G A12U,0.04
22,G17U G35C,0.18
23,C18U C37G,0.04
24,A24G G35U,0.13

row,Variant,self-cleavage
1,A25U U38G,0.03
2,G2A A6U,1
3,G19U G27A,0.54
4,G5A A16U,0.07
5,G30A G36C,0.07
6,G7U U38G,0.03
7,G2C G44C,0.18
8,C37U A41U,0.06
9,G29A G36C,0.09
10,C3A A41C,0.15
11,C13A G30A,0.08
12,G19C G29A,0.92
13,G2U A39U,0.04
14,G17C C31G,0.14
15,C37A G44U,0.18
16,C3U C10A,0.05
17,G27A C45A,0.79
18,C15A A24C,0.04
19,G27U C31A,0.46
20,A11G C23G,0.03
21,G7C G35A,0.08
22,C15A G29C,0.18
23,A25U G30A,1.17
